Measurements taken from article PMC5802723, “Pro-metastatic collagen lysyl hydroxylase dimer assemblies stabilized by Fe^2+-binding” (Nature Communications, 2018).

Key:
[1] = target: L230 LH domain (amino acids 680-895), wild type (Acanthamoeba polyphaga mimivirus); test: SAXS; L230 LH domain in solution, three concentrations diluted from 6 mg/ml, merged; SIBYLS beamline
[2] = target: bovine skin collagen substrate containing no telopeptides (Bovine PureCol) (bovine) (UniProt P02453)
[3] = target: L230 LH domain (amino acids 680-895), wild type (Acanthamoeba polyphaga mimivirus); test: SEC-MALS; L230 variants, 3 mg/ml, 150 ul, Superdex 75; 20 mM Tris pH 8, 200 mM NaCl, 0.02% sodium azide, room temperature
[4] = target: L230 LH domain (amino acids 680-895), wild type (Acanthamoeba polyphaga mimivirus); test: MST; Atto647-labelled L230 (40 nM, 10 ul) mixed with equal volume of unlabelled L230 (8.5 uM-0.5 nM); incubated at 25 °C for 15 min, measured at 20 °C; dimer to monomers
[5] = target: the molecule itself; test: SEC-MALS; Human LH2 proteins, 2 mg/ml, 100 ul, Superdex 200; 20 mM Tris pH 8, 200 mM NaCl, 0.02% sodium azide, room temperature

bovine skin collagen substrate containing no telopeptides (Bovine PureCol) (bovine), sequence (P02453 162-1217, chain 1 of 2): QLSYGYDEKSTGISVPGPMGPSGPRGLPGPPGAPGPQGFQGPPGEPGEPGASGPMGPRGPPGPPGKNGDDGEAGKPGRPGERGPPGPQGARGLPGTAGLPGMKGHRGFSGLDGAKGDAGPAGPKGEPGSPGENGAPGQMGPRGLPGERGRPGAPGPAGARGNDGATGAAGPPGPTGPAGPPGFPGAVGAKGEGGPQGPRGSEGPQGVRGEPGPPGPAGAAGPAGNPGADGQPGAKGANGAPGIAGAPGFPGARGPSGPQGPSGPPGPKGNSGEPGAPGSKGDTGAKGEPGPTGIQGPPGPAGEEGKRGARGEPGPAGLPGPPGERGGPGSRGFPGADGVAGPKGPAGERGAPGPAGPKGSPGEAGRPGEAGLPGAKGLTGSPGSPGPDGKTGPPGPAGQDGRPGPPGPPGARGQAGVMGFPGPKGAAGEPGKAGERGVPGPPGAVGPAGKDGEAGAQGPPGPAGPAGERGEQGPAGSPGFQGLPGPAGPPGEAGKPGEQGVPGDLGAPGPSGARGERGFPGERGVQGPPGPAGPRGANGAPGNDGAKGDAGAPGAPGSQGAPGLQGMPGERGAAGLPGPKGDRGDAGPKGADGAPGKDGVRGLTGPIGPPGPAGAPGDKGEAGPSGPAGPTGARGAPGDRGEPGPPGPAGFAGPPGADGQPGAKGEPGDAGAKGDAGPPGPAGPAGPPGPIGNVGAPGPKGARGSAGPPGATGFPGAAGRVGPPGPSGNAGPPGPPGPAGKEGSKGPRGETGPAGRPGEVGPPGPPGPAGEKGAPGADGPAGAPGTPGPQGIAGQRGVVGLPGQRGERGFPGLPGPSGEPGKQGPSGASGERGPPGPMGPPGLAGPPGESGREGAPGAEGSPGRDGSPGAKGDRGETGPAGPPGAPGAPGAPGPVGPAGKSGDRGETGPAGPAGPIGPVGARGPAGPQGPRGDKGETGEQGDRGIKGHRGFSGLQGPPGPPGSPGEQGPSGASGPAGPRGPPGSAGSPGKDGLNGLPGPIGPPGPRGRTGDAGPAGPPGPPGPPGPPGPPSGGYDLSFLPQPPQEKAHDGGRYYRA
bovine skin collagen substrate containing no telopeptides (Bovine PureCol) (bovine), sequence (P02465 80-1117, chain 2 of 2, further chain): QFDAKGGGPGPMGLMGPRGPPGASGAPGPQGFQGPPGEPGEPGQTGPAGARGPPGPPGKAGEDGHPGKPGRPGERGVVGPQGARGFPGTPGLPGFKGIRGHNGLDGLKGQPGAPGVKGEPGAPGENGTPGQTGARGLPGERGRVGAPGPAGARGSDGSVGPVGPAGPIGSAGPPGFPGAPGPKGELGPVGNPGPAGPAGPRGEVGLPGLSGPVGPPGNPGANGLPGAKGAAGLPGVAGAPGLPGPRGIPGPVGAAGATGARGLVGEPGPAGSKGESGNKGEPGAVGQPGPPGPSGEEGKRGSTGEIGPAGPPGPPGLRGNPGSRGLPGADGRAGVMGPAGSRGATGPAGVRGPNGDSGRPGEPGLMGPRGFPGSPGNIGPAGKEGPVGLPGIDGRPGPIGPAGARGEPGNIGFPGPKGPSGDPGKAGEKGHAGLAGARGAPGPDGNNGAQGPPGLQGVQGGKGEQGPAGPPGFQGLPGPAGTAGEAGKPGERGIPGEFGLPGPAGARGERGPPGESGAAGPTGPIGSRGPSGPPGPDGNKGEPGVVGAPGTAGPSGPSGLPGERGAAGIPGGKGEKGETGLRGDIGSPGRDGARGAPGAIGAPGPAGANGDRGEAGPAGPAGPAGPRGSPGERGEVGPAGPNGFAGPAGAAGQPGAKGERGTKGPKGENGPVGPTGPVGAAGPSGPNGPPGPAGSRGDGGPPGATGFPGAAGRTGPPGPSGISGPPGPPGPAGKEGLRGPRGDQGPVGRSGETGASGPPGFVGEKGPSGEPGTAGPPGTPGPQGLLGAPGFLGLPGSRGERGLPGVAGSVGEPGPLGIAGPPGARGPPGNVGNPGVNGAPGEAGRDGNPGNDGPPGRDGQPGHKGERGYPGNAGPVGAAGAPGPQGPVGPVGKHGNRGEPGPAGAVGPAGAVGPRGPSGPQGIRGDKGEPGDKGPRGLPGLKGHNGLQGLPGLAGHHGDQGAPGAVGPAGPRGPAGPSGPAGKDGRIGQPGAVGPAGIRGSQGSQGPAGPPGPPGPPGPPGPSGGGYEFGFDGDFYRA

“L230 LH domain (amino acids 680-895), wild type (domain or fragment)” was tested, and the stoichiometry N [1] was 2, the estimated Km for bovine skin collagen in the enzymatic assay (succinate production); achievable collagen concentrations did not saturate activity [2] was 2.6 µM and the stoichiometry N [3] was 2. It also gave a Kd [4] of 23.9 nM.

In the case of “L230 LH domain (amino acids 680-895) K804E (domain or fragment)”, the estimated Km for bovine skin collagen in the enzymatic assay (succinate production); achievable collagen concentrations did not saturate activity [2] is reported as 9.6 µM.

B1: Human LH2 recombinant protein (residues 33-758), wild type (enzyme, UniProt O00469-2 33-758, looked up)
chain: SIPTDKLLVITVATKESDGFHRFMQSAKYFNYTVKVLGQGEEWRGGDGINSIGGGQKVRLMKEVMEHYADQDDLVVMFTECFDVIFAGGPEEVLKKFQKANHKVVFAADGILWPDKRLADKYPVVHIGKRYLNSGGFIGYAPYVNRIVQQWNLQDNDDDQLFYTKVYIDPLKREAINITLDHKCKIFQTLNGAVDEVVLKFENGKARAKNTFYETLPVAINGNGPTKILLNYFGNYVPNSWTQDNGCTLCEFDTVDLSAVDVHPNVSIGVFIEQPTPFLPRFLDILLTLDYPKEALKLFIHNKEVYHEKDIKVFFDKAKHEIKTIKIVGPEENLSQAEARNMGMDFCRQDEKCDYYFSVDADVVLTNPRTLKILIEQNRKIIAPLVTRHGKLWSNFWGALSPDGYYARSEDYVDIVQGNRVGVWNVPYMANVYLIKGKTLRSEMNERNYFVRDKLDPDMALCRNAREMTLQREKDSPTPETFQMLSPPKGVFMYISNRHEFGRLLSTANYNTSHYNNDLWQIFENPVDWKEKYINRDYSKIFTENIVEQPCPDVFWFPIFSEKACDELVEEMEHYGKWSGGKHHDSRISGGYENVPTDDIHMKQVDLENVWLHFIREFIAPVTLKVFAGYYTKGFALLNFVVKYSPERQRSLRPHHDASTFTINIALNNVGEDFQGGGCKFLRYNCSIESPRKGWSFMHPGRLTHLHEGLPVKNGTRYIAVSFIDP
notes: Human lysyl hydroxylase 2 (LH2), residues 33-758; the printed end at 758 and the residues D689 and L735 fit the 758-residue isoform; also called lysyl hydroxylase 2; source: ExpiCHO cells, transient transfection, secreted
B1: binds [5].
